According to the RNAGym collection of RNA variant scans (doi:10.1093/molbev/msab373):

B1: Azoarcus group I ribozyme (parent)
chain: GUGCCUUGCGCCGGGAAACCACGCAAGGGAUGGUGUCAAAUUCGGCGAAACCUAAGCGCCCGCCCGGGCGUAUGGCAACGCCGAGCCAAGCUUCGGCGCCUGCGCCGAUGAAGGUGUAGAGACUAGACGGCACCCACCUAAGGCAAACGCUAUGGUGAAGGCAUAGUCCAGGGAGUGGCGAAAGUCACACAAACCGG

Variants of: B1
Assay: reverse-splicing fitness (ratio to wild type); higher = more active; in vitro selection; Mg2+ level not given
Outline: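 An in vitro group I ribozyme library with randomized positions was T7-transcribed and gel-purified. In triplicate, 10 pmol RNA in EPPS pH 7.5 was reacted with 50 pmoles of a 30-nt RNA substrate for 1 h at 37 °C across several added MgCl2 levels (1–48 mM), then stopped with EDTA. Products were reverse transcribed from a substrate-complementary primer, PCR-amplified and sequenced (HiSeq 4000). Fitness is a variant's read proportion after selection over that before, normalised to wild type.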

First: GUGCCUUGCGCCGGGAAACCACGCAAGGGAUGGUGUCAAAUUCGGCGAAACCUAAGCGCCCGCCCGGGCGUAUGGCAACGCUGAGCCAAGCUUCGGCGCCUGCGCCGAUGAAGGUGUAGAGACUAGACGGCACCCACCUAAGGCCAACGAUAUGGUGAAGGCAUAGUCAAGGGAGUGGCGAAAGUCACACAAACCGG [C82U A145C C150A C169A]
Second: GUGCCUUGCGCCGGGAAACCACGCAAGGGAUGGUGUCAAAUUCGGCGAAACCUAAGCGCCCGCCCGGGCGUAUGGCAACGCUGAGCCAAGCUUCGGCGCCUGCGCCGAUGAAGGUGUAGAGACUAGACGGCACCCACCUAAGGCCAACGAUAUGGUGAAGGCAUAGUCUAGGGAGUGGCGAAAGUCACACAAACCGG [C82U A145C C150A C169U]
The reverse-splicing fitness of the first is lower: 0.00751 for the first, 0.00854 for the second.

Going from GUGCCUUGCGCCGGGAAACCACGCAAGGGAUGGUGUCAAAUUCGGCGAAACCUAAGCGCCCGCCCGGGCGUAUGGCAACGCUGAGCCAAGCUUCGGCGCCUGCGCCGAUGAAGGUGUAGAGACUAGACGGCACCCACCUAAGGCCAACGAUAUGGUGAAGGCAUAGUCGAGGGAGUGGCGAAAGUCACACAAACCGG [C82U A145C C150A C169G] to GUGCCUUGCGCCGGGAAACCACGCAAGGGAUGGUGUCAAAUUCGGCGAAACCUAAGCGCCCGCCCGGGCGUAUGGCAACGCUGAGCCAAGCUUCGGCGCCUGCGCCGAUGAAGGUGUAGAGACUAGACGGCACCCACCUAAGGCCAACGCUAUGGUGAAGGCAUAGUCCAGGGAGUGGCGAAAGUCACACAAACCGG [C82U A145C], the reverse-splicing fitness rises from 0.00677 to 0.598.

Compared with GUGCCUUGCGCCGGGAAACCACGCAAGGGAUGGUGUCAAAUUCGGCGAAACCUAAGCGCCCGCCCGGGCGUAUGGCAACGCUGAGCCAAGCUUCGGCGCCUGCGCCGAUGAAGGUGUAGUGACUAGACGGCACCCACCUAAGGCAAACGCUAUGGUGAAGGCAUAGUCUAGGGAGGGGCGAAAGUCACACAAACCGG [C82U A120U C169U U176G], GUGCCUUGCGCCGGGAAACCACGCAAGGGAUGGUGUCAAAUUCGGCGAAACCUAAGCGCCCGCCCGGGCGUAUGGCAACGCUGAGCCAAGCUUCGGCGCCUGCGCCGAUGAAGGUGUAGUGACUAGACGGCACCCACCUAAGGCAAACGCUAUGGUGAAGGCAUAGUCUAGGGAGCGGCGAAAGUCACACAAACCGG [C82U A120U C169U U176C] is higher in reverse-splicing fitness: 0.00164 for the first, 0.0045 for the second.

First: GUGCCUUGCGCCGGGAAACCACGCAAGGGAUGGUGUCAAAUUCGGCGAAACCUAAGCGCCCGCCCGGGCGUAUGGCAACGCUGAGCCAAGCUUCGGCGCCUGCGCCGAUGAAGGUGUAGUGACUAGACGGCACCCACCUAAGGCAAACGCUAUGGUGAAGGCAUAGUCUAGGGAGAGGCGAAAGUCACACAAACCGG [C82U A120U C169U U176A]
Second: GUGCCUUGCGCCGGGAAACCACGCAAGGGAUGGUGUCAAAUUCGGCGAAACCUAAGCGCCCGCCCGGGCGUAUGGCAACGCUGAGCCAAGCUUCGGCGCCUGCGCCGAUGAAGGUGUAGAGACUAGACGGCACCCACCUAAGGCCAACGAUAUGGUGAAGGCAUAGUCCAGGGAGGGGCGAAAGUCACACAAACCGG [C82U A145C C150A U176G]
The reverse-splicing fitness of the first is lower: 0.00362 for the first, 0.0119 for the second.

First: GUGCCUUGCGCCGGGAAACCACGCAAGGGAUGGUGUCAAAUUCGGCGAAACCUAAGCGCCCGCCCGGGCGUAUGGCAACGCUGAGCCAAGCUUCGGCGCCUGCGCCGAUGAAGGUGUAGAGACUAGACGGCACCCACCUAAGGCCAACGAUAUGGUGAAGGCAUAGUCCAGGGAGAGGCGAAAGUCACACAAACCGG [C82U A145C C150A U176A]
Second: GUGCCUUGCGCCGGGAAACCACGCAAGGGAUGGUGUCAAAUUCGGCGAAACCUAAGCGCCCGCCCGGGCGUAUGGCAACGCUGAGCCAAGCUUCGGCGCCUGCGCCGAUGAAGGUGUAGAGACUAGACGGCACCCACCUAAGGCCAACGAUAUGGUGAAGGCAUAGUCCAGGGAGCGGCGAAAGUCACACAAACCGG [C82U A145C C150A U176C]
The reverse-splicing fitness of the first is lower: 0.031 for the first, 0.0348 for the second.

Going from GUGCCUUGCGCCGGGAAACCACGCAAGGGAUGGUGUCAAAUUCGGCGAAACCUAAGCGCCCGCCCGGGCGUAUGGCAACGCUGAGCCAAGCUUCGGCGCCUGCGCCGAUGAAGGUGUAGUGACUAGACGGCACCCACCUAAGGCAAACGCUAUGGUGAAGGCAUAGUCCAGGGAGGGGCGAAAGUCACACAAACCGG [C82U A120U U176G] to GUGCCUUGCGCCGGGAAACCACGCAAGGGAUGGUGUCAAAUUCGGCGAAACCUAAGCGCCCGCCCGGGCGUAUGGCAACGCUGAGCCAAGCUUCGGCGCCUGCGCCGAUGAAGGUGUAGUGACUAGACGGCACCCACCUAAGGCAAACGCUAUGGUGAAGGCAUAGUCCAGGGAGAGGCGAAAGUCACACAAACCGG [C82U A120U U176A], the reverse-splicing fitness rises from 0.0137 to 0.0428.

First: GUGCCUUGCGCCGGGAAACCACGCAAGGGAUGGUGUCAAAUUCGGCGAAACCUAAGCGCCCGCCCGGGCGUAUGGCAACGCUGAGCCAAGCUUCGGCGCCUGCGCCGAUGAAGGUGUAGUGACUAGACGGCACCCACCUAAGGCAAACGCUAUGGUGAAGGCAUAGUCCAGGGAGCGGCGAAAGUCACACAAACCGG [C82U A120U U176C]
Second: GUGCCUUGCGCCGGGAAACCACGCAAGGGAUGGUGUCAAAUUCGGCGAAACCUAAGCGCCCGCCCGGGCGUAUGGCAACGCUGAGCCAAGCUUCGGCGCCUGCGCCGAUGAAGGUGUAGAGACUAGACGGCACCCACCUAAGGCCAACGGUAUGGUGAAGGCAUAGUCAAGGGAGCGGCGAAAGUCACACAAACCGG [C82U A145C C150G C169A U176C]
The reverse-splicing fitness of the first is higher: 0.0796 for the first, 0.00546 for the second.

In the case of GUGCCUUGCGCCGGGAAACCACGCAAGGGAUGGUGUCAAAUUCGGCGAAACCUAAGCGCCCGCCCGGGCGUAUGGCAACGCUGAGCCAAGCUUCGGCGCCUGCGCCGAUGAAGGUGUAGAGACUAGACGGCACCCACCUAAGGCCAACGGUAUGGUGAAGGCAUAGUCAAGGGAGGGGCGAAAGUCACACAAACCGG [C82U A145C C150G C169A U176G], the reverse-splicing fitness is reported as 0.0049.
